Source: patent US20080095768A1 (PDL BIOPHARMA, published 2008)

Molecular target: T1, human CS1 (CD2-subset1) (human, UniProt Q9NQ25 23-335)
T1 construct: Endogenous CS1 on primary myeloma cells / CD138+ tissue plasma cells; also called SLAMF7; CRACC
Assay: flow cytometry on primary myeloma cells and IHC on normal tissues, using HuLuc63 as the detecting antibody
Experimental: Gene expression was assessed using an Affymetrix GeneChip array. Protein expression was measured by flow cytometry, and immunohistochemistry (IHC), using HuLuc63, a novel humanized anti-CS1 mAb. HuLuc63-mediated lysis of myeloma cells via antibody dependent cellular cytotoxicity (ADCC) was measured by ⁵¹Cr-release.
CS1 mRNA was detected in CD138+ purified plasma cells from >95% of healthy donors, newly diagnosed myeloma patients, and those with relapsed myeloma (FIG. 1). […] Finally, we determined that HuLuc63 could induce killing of myeloma cells using purified allogeneic NK cells (FIG. 2). […] Our data support the potential clinical utility of CS1-targeted therapy.

B1: HuLuc63 (antibody, IgG1, V domains shown)
VH: EVQLVESGGGLVQPGGSLRLSCAASGFDFSRYWMSWVRQAPGKGLEWIGEINPDSSTINYAPSLKDKFIISRDNAKNSLYLQMNSLRAEDTAVYYCARPDGNYWYFDVWGQGTLVTVSS
VL: DIQMTQSPSSLSASVGDRVTITCKASQDVGIAVAWYQQKPGKVPKLLIYWASTRHTGVPDRFSGSGSGTDFTLTISSLQPEDVATYYCQQYSSYPYTFGQGTKVEIK
notes: Humanized recombinant monoclonal IgG1; also called HyLuc63; humanized anti-CS1 mAb
  binding result: binds
